Here are results for five substances from article PMC3114107.

Test [1] has as its target [Lys]plasminogen (human). The experiment in a line: steady-state kinetics of Pg activation.
Test [2] deals with [5F]FFR-[Lys]Pg ([Lys]plasminogen inactivated with ATA-FFR-CH2Cl and labeled with 5-(iodoacetamido)fluorescein) (human). The test is described as follows: other fluorescence titration.
Test [3] has the same target. The test is described as follows: other fluorescence titration. This is another data set of the same source.
Test [4] addresses [Lys]plasminogen (human). The experiment in a line: steady-state kinetics of Pg activation. The source holds these as a separate data set.

pKd: −log10 of the molar value. Where two headings read alike, the source gives them in different places.

[Lys]plasminogen (human), sequence (P00747 whole entry): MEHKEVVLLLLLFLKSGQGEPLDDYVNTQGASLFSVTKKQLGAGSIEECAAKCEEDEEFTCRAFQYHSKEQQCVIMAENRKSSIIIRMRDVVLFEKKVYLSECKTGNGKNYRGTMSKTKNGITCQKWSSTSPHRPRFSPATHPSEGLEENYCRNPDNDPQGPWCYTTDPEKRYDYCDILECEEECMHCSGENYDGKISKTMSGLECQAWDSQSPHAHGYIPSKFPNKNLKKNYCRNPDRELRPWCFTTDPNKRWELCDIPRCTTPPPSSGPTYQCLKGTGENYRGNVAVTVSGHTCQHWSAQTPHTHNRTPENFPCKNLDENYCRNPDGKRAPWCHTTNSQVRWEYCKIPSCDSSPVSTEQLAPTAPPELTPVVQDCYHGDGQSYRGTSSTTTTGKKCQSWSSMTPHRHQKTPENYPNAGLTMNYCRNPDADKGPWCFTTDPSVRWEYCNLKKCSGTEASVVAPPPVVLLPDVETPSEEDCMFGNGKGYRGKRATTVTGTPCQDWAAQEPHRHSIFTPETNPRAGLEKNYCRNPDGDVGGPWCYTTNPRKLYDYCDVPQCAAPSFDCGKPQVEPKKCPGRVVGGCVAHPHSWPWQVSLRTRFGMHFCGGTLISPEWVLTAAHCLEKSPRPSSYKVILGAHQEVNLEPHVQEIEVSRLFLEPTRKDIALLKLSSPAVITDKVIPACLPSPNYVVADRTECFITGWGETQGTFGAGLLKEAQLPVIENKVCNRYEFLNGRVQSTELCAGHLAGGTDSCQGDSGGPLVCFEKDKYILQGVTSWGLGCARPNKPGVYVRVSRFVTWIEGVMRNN
[5F]FFR-[Lys]Pg ([Lys]plasminogen inactivated with ATA-FFR-CH2Cl and labeled with 5-(iodoacetamido)fluorescein) (human), sequence (P00747 whole entry): as above

As for “SKΔ(R253-L260) (from UniProt P00779 27-440) (natural protein)”, the pKd in test [1] was 7.11.
For the substance “wtSK-His6 (TEVp-cleaved His6-wtSK-His6) (from UniProt P00779 27-440) (natural protein)”, the pKd in test [2] was 6.54; in test [1], 7.49; in test [3], 6.62.
For “Native streptokinase (from UniProt P00779 27-440) (natural protein)”, in test [4], the pKd is 8.80.
In the case of “SKΔ(R253-L260)ΔK414-His6 (TEVp-cleaved His6-(TEVp cleavage site)-SKΔ(R253-L260)ΔK414-His6) (from UniProt P00779 27-440) (natural protein)”, the values for the pKd in test [2], in test [4] and in test [3] were 6.09, 7.55 and 6.33, respectively.
As to “recombinant wild-type streptokinase (from UniProt P00779 27-440) (natural protein)”, the pKd in test [1] is 7.48; in test [4], 8.80.

As usually defined, the pKd is −log10 of the Kd, conventionally taken in molar units.
